Patent US20150344570A1 (published 2015)

T1: FcγRIIa R (human, UniProt P12318 34-217)
T1 construct: extracellular domain; also called FcgRIIa R; FcγRIIa type R; not shown: His tag at the C terminus
T1 sequence (looked up): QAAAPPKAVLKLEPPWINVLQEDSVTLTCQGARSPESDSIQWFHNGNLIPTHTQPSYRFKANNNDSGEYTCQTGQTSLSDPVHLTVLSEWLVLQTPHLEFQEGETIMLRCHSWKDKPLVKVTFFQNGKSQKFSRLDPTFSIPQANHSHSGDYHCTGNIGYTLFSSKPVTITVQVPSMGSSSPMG

T2: FcγRIIb (human, UniProt P31994 43-217)
T2 construct: extracellular domain; also called FcgRIIb; 2b; not shown: His tag at the C terminus
T2 sequence (looked up): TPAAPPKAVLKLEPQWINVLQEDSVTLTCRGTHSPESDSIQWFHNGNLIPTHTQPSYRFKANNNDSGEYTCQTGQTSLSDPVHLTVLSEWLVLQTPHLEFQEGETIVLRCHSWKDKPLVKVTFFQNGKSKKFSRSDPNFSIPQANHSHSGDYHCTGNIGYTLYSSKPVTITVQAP


How the values were obtained:
FcγRIIa R [1] = molecular target: T1, FcγRIIa R; assay: SPR (Biacore T100); He/Con_2aR divided by He/Con_2b (FcγRIIa R over FcγRIIb)
Experimental: (§1) The heterodimerized antibodies He Abs in which one of the H chains was introduced with an alteration were assayed for their binding activities to each activating FcγR and inhibitory FcγR according to the method described in Example 4. […] The activating FcγRs in FIGS. 26, 27, 28, and 29 are FcγRIa, FcγRIIa (R), FcγRIIa (H), and FcγRIIIa, respectively.
(§2) Analysis of interaction between objective antibody and the FcγR was carried out using Biacore T100 (GE Healthcare). HBS-EP+ (GE Healthcare) was used as the running buffer, and the measurement temperature was set to 25° C. Chips produced by immobilizing the antigen peptide by the amine coupling method to a Series S Sencor Chip CM5 (GE Healthcare), or alternatively, chips produced by allowing preliminarily biotinylated antigen peptides to interact with and immobilize onto a Series S Sensor Chip SA (certified) (GE Healthcare) were used. Antibodies of interest were captured onto an antigen peptide-immobilized chip, and allowed to interact to each FcγR diluted with running buffer. To regenerate and repeatedly use the chip, the antibodies captured on the chip were washed off by reacting 10 mM glycine-HCl, pH 1.5.

FcγRIIa R [2] = molecular target: T1, FcγRIIa R; assay: SPR (Biacore T100), antibody captured on antigen peptide chip, FcγR as analyte; binding relative to GpH7-A5/GpH7-B3/GpL16-k0 = 100
Experimental: as §1, §2

FcγRIIb = molecular target: T2, FcγRIIb; assay: as above
Experimental: as §1, §2

Binder	He_2aR/2b (IIaR/IIb) (FcγRIIa R [1]) [ratio]	He/Con_2aR (IIaR binding) (FcγRIIa R [2])	He/Con_2b (IIb binding) (FcγRIIb)
GpH7-A5/GpH7-B3 variant D265_06M/GpL16-k0 (antibody, human IgG1, kappa, Heterodimerized anti-glypican-3 IgG1; mutation in one H chain only; also called He Ab) heavy 1: not shown heavy 2: not shown light: DIVMTQSPLSLPVTPGEPASISCQASESLVHSNRNTYLHWYLQKPGQSPQLLIYKVSNRFSGVPDRFSGSGSGTDFTLKISRVEAEDVGVYYCSQNTHVPPTFGQGTKVEIERTVAAPSVFIFPPSDEQLKSGTASVVCLLNNFYPREAKVQWKVDNALQSGNSQESVTEQDSKDSTYSLSSTLTLSKADYEKHKVYACEVTHQGLSSPVTKSFNRGEC	1.58	15.8 % of control	10 % of control
GpH7-A5/GpH7-B3 variant G237_16H/GpL16-k0 (antibody, human IgG1, kappa, Heterodimerized anti-glypican-3 IgG1; mutation in one H chain only; also called He Ab) heavy 1: not shown heavy 2: not shown light: DIVMTQSPLSLPVTPGEPASISCQASESLVHSNRNTYLHWYLQKPGQSPQLLIYKVSNRFSGVPDRFSGSGSGTDFTLKISRVEAEDVGVYYCSQNTHVPPTFGQGTKVEIERTVAAPSVFIFPPSDEQLKSGTASVVCLLNNFYPREAKVQWKVDNALQSGNSQESVTEQDSKDSTYSLSSTLTLSKADYEKHKVYACEVTHQGLSSPVTKSFNRGEC	1.35	74.5 % of control	55.2 % of control
GpH7-A5/GpH7-B3 variant G236_19Q/GpL16-k0 (antibody, human IgG1, kappa, Heterodimerized anti-glypican-3 IgG1; mutation in one H chain only; also called He Ab) heavy 1: not shown heavy 2: not shown light: DIVMTQSPLSLPVTPGEPASISCQASESLVHSNRNTYLHWYLQKPGQSPQLLIYKVSNRFSGVPDRFSGSGSGTDFTLKISRVEAEDVGVYYCSQNTHVPPTFGQGTKVEIERTVAAPSVFIFPPSDEQLKSGTASVVCLLNNFYPREAKVQWKVDNALQSGNSQESVTEQDSKDSTYSLSSTLTLSKADYEKHKVYACEVTHQGLSSPVTKSFNRGEC	1.59	74.2 % of control	46.6 % of control
GpH7-A5/GpH7-B3 variant G236_15Y/GpL16-k0 (antibody, human IgG1, kappa, Heterodimerized anti-glypican-3 IgG1; mutation in one H chain only; also called He Ab) heavy 1: not shown heavy 2: not shown light: DIVMTQSPLSLPVTPGEPASISCQASESLVHSNRNTYLHWYLQKPGQSPQLLIYKVSNRFSGVPDRFSGSGSGTDFTLKISRVEAEDVGVYYCSQNTHVPPTFGQGTKVEIERTVAAPSVFIFPPSDEQLKSGTASVVCLLNNFYPREAKVQWKVDNALQSGNSQESVTEQDSKDSTYSLSSTLTLSKADYEKHKVYACEVTHQGLSSPVTKSFNRGEC	1.48	58.6 % of control	39.5 % of control
GpH7-A5/GpH7-B3 variant G237_05P/GpL16-k0 (antibody, human IgG1, kappa, Heterodimerized anti-glypican-3 IgG1; mutation in one H chain only; also called He Ab) heavy 1: not shown heavy 2: not shown light: DIVMTQSPLSLPVTPGEPASISCQASESLVHSNRNTYLHWYLQKPGQSPQLLIYKVSNRFSGVPDRFSGSGSGTDFTLKISRVEAEDVGVYYCSQNTHVPPTFGQGTKVEIERTVAAPSVFIFPPSDEQLKSGTASVVCLLNNFYPREAKVQWKVDNALQSGNSQESVTEQDSKDSTYSLSSTLTLSKADYEKHKVYACEVTHQGLSSPVTKSFNRGEC	1.4	34.5 % of control	24.6 % of control
GpH7-A5/GpH7-B3 variant G236_20W/GpL16-k0 (antibody, human IgG1, kappa, Heterodimerized anti-glypican-3 IgG1; mutation in one H chain only; also called He Ab) heavy 1: not shown heavy 2: not shown light: DIVMTQSPLSLPVTPGEPASISCQASESLVHSNRNTYLHWYLQKPGQSPQLLIYKVSNRFSGVPDRFSGSGSGTDFTLKISRVEAEDVGVYYCSQNTHVPPTFGQGTKVEIERTVAAPSVFIFPPSDEQLKSGTASVVCLLNNFYPREAKVQWKVDNALQSGNSQESVTEQDSKDSTYSLSSTLTLSKADYEKHKVYACEVTHQGLSSPVTKSFNRGEC	1.34	77.9 % of control	58.2 % of control
GpH7-A5/GpH7-B3 variant D265_07I/GpL16-k0 (antibody, human IgG1, kappa, Heterodimerized anti-glypican-3 IgG1; mutation in one H chain only; also called He Ab) heavy 1: not shown heavy 2: not shown light: DIVMTQSPLSLPVTPGEPASISCQASESLVHSNRNTYLHWYLQKPGQSPQLLIYKVSNRFSGVPDRFSGSGSGTDFTLKISRVEAEDVGVYYCSQNTHVPPTFGQGTKVEIERTVAAPSVFIFPPSDEQLKSGTASVVCLLNNFYPREAKVQWKVDNALQSGNSQESVTEQDSKDSTYSLSSTLTLSKADYEKHKVYACEVTHQGLSSPVTKSFNRGEC	2.57	3.4 % of control	1.3 % of control
GpH7-A5/GpH7-B3 variant G236_16H/GpL16-k0 (antibody, human IgG1, kappa, Heterodimerized anti-glypican-3 IgG1; mutation in one H chain only; also called He Ab) heavy 1: not shown heavy 2: not shown light: DIVMTQSPLSLPVTPGEPASISCQASESLVHSNRNTYLHWYLQKPGQSPQLLIYKVSNRFSGVPDRFSGSGSGTDFTLKISRVEAEDVGVYYCSQNTHVPPTFGQGTKVEIERTVAAPSVFIFPPSDEQLKSGTASVVCLLNNFYPREAKVQWKVDNALQSGNSQESVTEQDSKDSTYSLSSTLTLSKADYEKHKVYACEVTHQGLSSPVTKSFNRGEC	2.24	62.7 % of control	27.9 % of control
GpH7-A5/GpH7-B3 variant D265_08L/GpL16-k0 (antibody, human IgG1, kappa, Heterodimerized anti-glypican-3 IgG1; mutation in one H chain only; also called He Ab) heavy 1: not shown heavy 2: not shown light: DIVMTQSPLSLPVTPGEPASISCQASESLVHSNRNTYLHWYLQKPGQSPQLLIYKVSNRFSGVPDRFSGSGSGTDFTLKISRVEAEDVGVYYCSQNTHVPPTFGQGTKVEIERTVAAPSVFIFPPSDEQLKSGTASVVCLLNNFYPREAKVQWKVDNALQSGNSQESVTEQDSKDSTYSLSSTLTLSKADYEKHKVYACEVTHQGLSSPVTKSFNRGEC	1.46	6.6 % of control	4.6 % of control
GpH7-A5/GpH7-B3 variant G237_03V/GpL16-k0 (antibody, human IgG1, kappa, Heterodimerized anti-glypican-3 IgG1; mutation in one H chain only; also called He Ab) heavy 1: not shown heavy 2: not shown light: DIVMTQSPLSLPVTPGEPASISCQASESLVHSNRNTYLHWYLQKPGQSPQLLIYKVSNRFSGVPDRFSGSGSGTDFTLKISRVEAEDVGVYYCSQNTHVPPTFGQGTKVEIERTVAAPSVFIFPPSDEQLKSGTASVVCLLNNFYPREAKVQWKVDNALQSGNSQESVTEQDSKDSTYSLSSTLTLSKADYEKHKVYACEVTHQGLSSPVTKSFNRGEC	1.52	93 % of control	61.4 % of control
GpH7-A5/GpH7-B3 variant G237_14T/GpL16-k0 (antibody, human IgG1, kappa, Heterodimerized anti-glypican-3 IgG1; mutation in one H chain only; also called He Ab) heavy 1: not shown heavy 2: not shown light: DIVMTQSPLSLPVTPGEPASISCQASESLVHSNRNTYLHWYLQKPGQSPQLLIYKVSNRFSGVPDRFSGSGSGTDFTLKISRVEAEDVGVYYCSQNTHVPPTFGQGTKVEIERTVAAPSVFIFPPSDEQLKSGTASVVCLLNNFYPREAKVQWKVDNALQSGNSQESVTEQDSKDSTYSLSSTLTLSKADYEKHKVYACEVTHQGLSSPVTKSFNRGEC	1.43	78.6 % of control	54.8 % of control

Further lines, results first:

He_2aR/2b (IIaR/IIb) (FcγRIIa R [1]) [ratio]	He/Con_2aR (IIaR binding) (FcγRIIa R [2])	He/Con_2b (IIb binding) (FcγRIIb)	Binder
2.03	36.9 % of control	18.1 % of control	GpH7-A5/GpH7-B3 variant P238_11K/GpL16-k0 (antibody, human IgG1, kappa, Heterodimerized anti-glypican-3 IgG1; mutation in one H chain only; also called He Ab) heavy 1: not shown heavy 2: not shown light: DIVMTQSPLSLPVTPGEPASISCQASESLVHSNRNTYLHWYLQKPGQSPQLLIYKVSNRFSGVPDRFSGSGSGTDFTLKISRVEAEDVGVYYCSQNTHVPPTFGQGTKVEIERTVAAPSVFIFPPSDEQLKSGTASVVCLLNNFYPREAKVQWKVDNALQSGNSQESVTEQDSKDSTYSLSSTLTLSKADYEKHKVYACEVTHQGLSSPVTKSFNRGEC
1.26	88.9 % of control	70.4 % of control	GpH7-A5/GpH7-B3 variant P238_13S/GpL16-k0 (antibody, human IgG1, kappa, Heterodimerized anti-glypican-3 IgG1; mutation in one H chain only; also called He Ab) heavy 1: not shown heavy 2: not shown light: DIVMTQSPLSLPVTPGEPASISCQASESLVHSNRNTYLHWYLQKPGQSPQLLIYKVSNRFSGVPDRFSGSGSGTDFTLKISRVEAEDVGVYYCSQNTHVPPTFGQGTKVEIERTVAAPSVFIFPPSDEQLKSGTASVVCLLNNFYPREAKVQWKVDNALQSGNSQESVTEQDSKDSTYSLSSTLTLSKADYEKHKVYACEVTHQGLSSPVTKSFNRGEC
1.31	75.1 % of control	57.4 % of control	GpH7-A5/GpH7-B3 variant P238_02A/GpL16-k0 (antibody, human IgG1, kappa, Heterodimerized anti-glypican-3 IgG1; mutation in one H chain only; also called He Ab) heavy 1: not shown heavy 2: not shown light: DIVMTQSPLSLPVTPGEPASISCQASESLVHSNRNTYLHWYLQKPGQSPQLLIYKVSNRFSGVPDRFSGSGSGTDFTLKISRVEAEDVGVYYCSQNTHVPPTFGQGTKVEIERTVAAPSVFIFPPSDEQLKSGTASVVCLLNNFYPREAKVQWKVDNALQSGNSQESVTEQDSKDSTYSLSSTLTLSKADYEKHKVYACEVTHQGLSSPVTKSFNRGEC
1.44	73.1 % of control	50.7 % of control	GpH7-A5/GpH7-B3 variant P238_14T/GpL16-k0 (antibody, human IgG1, kappa, Heterodimerized anti-glypican-3 IgG1; mutation in one H chain only; also called He Ab) heavy 1: not shown heavy 2: not shown light: DIVMTQSPLSLPVTPGEPASISCQASESLVHSNRNTYLHWYLQKPGQSPQLLIYKVSNRFSGVPDRFSGSGSGTDFTLKISRVEAEDVGVYYCSQNTHVPPTFGQGTKVEIERTVAAPSVFIFPPSDEQLKSGTASVVCLLNNFYPREAKVQWKVDNALQSGNSQESVTEQDSKDSTYSLSSTLTLSKADYEKHKVYACEVTHQGLSSPVTKSFNRGEC
1.57	80.5 % of control	51.4 % of control	GpH7-A5/GpH7-B3 variant P238_12R/GpL16-k0 (antibody, human IgG1, kappa, Heterodimerized anti-glypican-3 IgG1; mutation in one H chain only; also called He Ab) heavy 1: not shown heavy 2: not shown light: DIVMTQSPLSLPVTPGEPASISCQASESLVHSNRNTYLHWYLQKPGQSPQLLIYKVSNRFSGVPDRFSGSGSGTDFTLKISRVEAEDVGVYYCSQNTHVPPTFGQGTKVEIERTVAAPSVFIFPPSDEQLKSGTASVVCLLNNFYPREAKVQWKVDNALQSGNSQESVTEQDSKDSTYSLSSTLTLSKADYEKHKVYACEVTHQGLSSPVTKSFNRGEC
